PMC4751646, “Red Sea Atlantis II brine pool nitrilase with unique thermostability profile and heavy metal tolerance” (BMC Biotechnology, 2016)

Test system: N#CCCC#N
Assay: purified protein
Format: biochemical, uncultured Burkholderiaceae bacterium
Settings: 50 mM potassium phosphate pH 7.0, 40 °C, 2 mM DTT, 0-975 mM substrate

NitraS-ATII (uncultured Burkholderiaceae bacterium)
Km: 59.4 ± 6.8 mM | kcat: 0.472 s⁻¹
